For this data set, the target named is histone H3 trimethylated at lysine 9 (H3K9me3) in native chromatin of Caki-1 cells (UniProt P68431).

Turning to Nextera, the “Ec: global enrichment of the ATAC-seq tagmentation signal over H3K9me3-marked regions, log2(ratio) over genomic Input, Caki-1 [Continued) e]” value is recorded as “Ec= -3.16”; the “Mc: modal enrichment of the ATAC-seq tagmentation signal over H3K9me3-marked regions, log2(ratio) over genomic Input, Caki-1 [Continued) e]” value was “Mc= -0.89”; the “stated: no tagmentation signal over H3K9me3 ChIP-seq domains (ATAC-seq on permeabilized Caki-1 nuclei)” value is “Nextera track (scale 0-9.3): near zero over the H3K9me3 domain at about 42.4-43.4 Mbp and only small spikes at about 43.8-44.6 Mbp of Chr. 19; peaks where the H3K4me3 track has peaks”.

Consider TnH #1: 93aaCD (HP1α)-3×(TGS)-Tn5, for which the “Ec: global enrichment of the ATAC-seq tagmentation signal over H3K9me3-marked regions, log2(ratio) over genomic Input, Caki-1 [Continued) e]” value is listed as “Ec= 0.01”; the “Mc: modal enrichment of the ATAC-seq tagmentation signal over H3K9me3-marked regions, log2(ratio) over genomic Input, Caki-1 [Continued) e]” value is listed as “Mc= 0.19”; the “stated: tagmentation signal over H3K9me3 ChIP-seq domains (ATAC-seq on permeabilized Caki-1 nuclei)” value was “TnH#1 track (scale 0-6.6): continuous raised signal over the H3K9me3 domain at about 42.4-43.4 Mbp of Chr. 19, where the Tn5 and Nextera tracks are near zero, and lower continuous signal at about 43.8-44.6 Mbp; also sharp peaks at H3K4me3 positions”; the “tagmentation of native chromatin on permeabilized nuclei (ATAC-seq)” value (from here on “tagmentation of native chromatin”) was “hybrid Tn5 constructs indeed cut and inserted oligos in regions enriched for H3K9me3”.

As to TnH #2: 93aaCD (HP1α)-5×(TGS)-Tn5, the “Ec: global enrichment of the ATAC-seq tagmentation signal over H3K9me3-marked regions, log2(ratio) over genomic Input, Caki-1 [Continued) e]” value was “Ec= -0.41”; the “Mc: modal enrichment of the ATAC-seq tagmentation signal over H3K9me3-marked regions, log2(ratio) over genomic Input, Caki-1 [Continued) e]” value was “Mc= 0.07”; the “stated: tagmentation signal over H3K9me3 ChIP-seq domains (ATAC-seq on permeabilized Caki-1 nuclei)” value is “TnH#2 track (scale 0-7.7): signal above baseline over the H3K9me3 domain at about 42.4-43.4 Mbp of Chr. 19, where the Tn5 and Nextera tracks are near zero; the sharp peaks at H3K4me3 positions stand out more than in TnH#3 and TnH#1”; the “tagmentation of native chromatin” value was “hybrid Tn5 constructs indeed cut and inserted oligos in regions enriched for H3K9me3”.

Take TnH #3: 112aaCD (HP1α)-3×(TGS)-Tn5: the “Ec: global enrichment of the ATAC-seq tagmentation signal over H3K9me3-marked regions, log2(ratio) over genomic Input, Caki-1; subscript printed as 0, first E line of the box” value is “E0= 0.25”; the “Ec: global enrichment of the ATAC-seq tagmentation signal over H3K9me3-marked regions, log2(ratio) over genomic Input, Caki-1 [Continued) e]” value is “Ec= 0.25”; the “GET-seq, sequential Tn5 then TnH tagmentation, compared with ChIP-seq profiles” value is “TnH mimicked more closely H3K9me3 data, and to a lesser extent H3K4me3”; the “Mc: modal enrichment of the ATAC-seq tagmentation signal over H3K9me3-marked regions, log2(ratio) over genomic Input, Caki-1; subscript printed as 0, first M line of the box, agrees with the mode of t” value is reported as “M0= 0.31”. For the same substance, the “Mc: modal enrichment of the ATAC-seq tagmentation signal over H3K9me3-marked regions, log2(ratio) over genomic Input, Caki-1 [Continued) e]” value is reported as “Mc= 0.31”; the “TnH ATAC-seq compared with H3K9me3 and H3K4me3 ChIP-seq” value was “TnH captures both H3K4me3- and H3K9me3-enriched regions, unlike Tn5 which closely matches H3K4me3 profiles”; the “enrichment of tagmentation signal over H3K9me3-marked regions, compared among TnH #1-4” value is recorded as “We identified the construct TnH #3, from now on TnH, as the most efficient”; the “scGET-seq pseudobulk compared with H3K9me3 and H3K4me3 ChIP-seq” value is on record as “TnH was able to target regions positive for H3K9me3 as well as H3K4me3”. In addition, the “stated: tagmentation profile follows the H3K9me3 ChIP-seq profile (ATAC-seq, Caki-1)” value was “TnH track (scale 0-15): broad raised signal where the H3K9me3 track has its domains, highest at about 54.5-55.7 Mbp and raised at about 59-62.5 Mbp of Chr.12, where the Tn5 track is near zero; Input (scale 0-10) flat near 0”; the “stated: tagmentation profile follows the H3K9me3 ChIP-seq profile (bulk ATAC-seq with TnH alone and scGET-seq pseudo-bulk, Caki-1) [Continued) g]” value was “tnH track (scale 0-15): broad raised signal of about half the scale or more at about 33-35, 36.3-37.5 and 38.0-38.9 Mbp of chr1, over the H3K9me3 domains; tnH pseudobulk track (scale 0-15): the same three domains raised, somewhat lower; both also show small peaks at H3K4me3 positions; Input (scale 0”; the “stated: tagmentation signal over H3K9me3 ChIP-seq domains (ATAC-seq on permeabilized Caki-1 nuclei)” value is “TnH#3 track (scale 0-8.0): continuous raised signal over the H3K9me3 domain at about 42.4-43.4 Mbp of Chr. 19, where the Tn5 and Nextera tracks are near zero, and lower continuous signal at about 43.8-44.6 Mbp; also sharp peaks at H3K4me3 positions (e.g. about 45.5 Mbp)”; the “tagmentation of native chromatin” value is “hybrid Tn5 constructs indeed cut and inserted oligos in regions enriched for H3K9me3”.

In the case of TnH #4: 112aaCD (HP1α)-5×(TGS)-Tn5, the “Ec: global enrichment of the ATAC-seq tagmentation signal over H3K9me3-marked regions, log2(ratio) over genomic Input, Caki-1 [Continued) e]” value was “Ec= -0.55”; the “Mc: modal enrichment of the ATAC-seq tagmentation signal over H3K9me3-marked regions, log2(ratio) over genomic Input, Caki-1 [Continued) e]” value is listed as “Mc= 0.07”; the “stated: tagmentation signal over H3K9me3 ChIP-seq domains (ATAC-seq on permeabilized Caki-1 nuclei)” value was “TnH#4 track (scale 0-2.7): signal above baseline over the H3K9me3 domain at about 42.4-43.4 Mbp of Chr. 19, where the Tn5 and Nextera tracks are near zero; the sharp peaks at H3K4me3 positions stand out more than in TnH#3 and TnH#1”; the “tagmentation of native chromatin” value was “hybrid Tn5 constructs indeed cut and inserted oligos in regions enriched for H3K9me3”.

(Values after patent publication US20240425848.)
